Assay: soluble on expression in E. coli; label from the status in PepcDB or PDB records

Sequence | soluble on expression in E. coli
MGSDKIHHHHHHMNNIFLILGCAKQRWQDLEIICEYVKKTYSLTTMLMVNKAHKEFYSVCDQVIEVDLSDQNFIALASRLLSEQKVSGGLLFADQALLHGTKLFEQLGIVCDNSELGINSYSKLEFRRQEKRYFSHAAKTHYFVPEFSKVNSLQDVHAFAVKYPDGFILKPISEGGSRGVLKLHAQSDFGAAYKQVECYQADGLMCEQLIPTFREFSFDGVGDISFITEKLVATGAHPVEVGQIVPAELTCDSAEKISAHGRLMNLWVGQQLGAFHNEIAYLESQGSTAAIESNRRSGGMGIWNLAEKVFGENLFHRWVDVAMGQTVEHIPLNATGKAMSCMLGSRENLIDDLTMITAQIQEVLAFELGPDIELFSLRWLHTQPHMLPSIPQSNFDFLAEACIYCAHFDLSNQALYERVQRAWDKCLYIGMKEEKCA | not soluble
MAGDPNSMKYSDLRDFIAQLESRELLKRIDYPVSPHLEMTLVSDKVLRSGGPALLFTNTPNYNMPVLTNLFGTVERVALGMGEESIVALREIGKLLAALKEPDPPKGFKDAFSKLPLLKQALNMAPKYVSGAECQTHVWEKDEVDLTLLPIQTCWPGDVAPLITWGLVTTRGPHQSRENMGIYRQQLLSKNKLIMRWLSHRGGALDYQAWQQEYPKERFPVAVTLGADPATILAAVTPVPDTLSEYAFAGLLRGQRTRLTRCIGNDLHVPASAEIVLEGYLEPGNEAPEGPYGDHTGYYNEVQSFPVFTVERITHRDKPIYHSTYTGRPPDEPAILGVALNEVFIPLLQKQFPEIVDFYLPPEGCSYRLAVVTIKKQYPGHAKRIMMAVWSFLRQFMYTKFVIVCDDDVDARNWQDVIWAMTTRMDPSRDTVMVENTPIDYLDFASPVSGLGSKMGMDATSKWPGETQREWGKPITMDEDVLNRVNGYWSLLGLKLEHHHHHH | not soluble
GPGSMWTTSMALMSKRSMKYQTKLRHRFRNPSVLPLKQTKAQRDETIRSVLQVRNINPANQSSYRYVEQRLYSTGSRLDREGVKLNTTYALQGLGDLEPLRNSKSFGFSEREALKYDSLQQAAKYEAPPVPFTPLAARKLAEGKLWPSAPEPDGMLSKEVPYLRHRANMSPSAQTFADKIAYHLRRSLKACPAHIAEQMDFAQLIIEEVIASRRSKLVYIVWATVDPAARFAMEPQLHRLNHWVQRLIMERIRTRPNIPQIAWVWNGGRLERELPRELKEEMQAYASDNSSTLEMRVRYLKEMDTVNQRMRNIPWFMPYLWSKEEKAGKTRRMRKDLEEYEQRRLAAKKDQRESERDMSGRSVAPQIGAPPAYVR | not soluble
MSNNETMMFNVEKEKVNEARELLVSVYKALKEKGYNPINQIVGYILSGDPTYITNHLDARSSIRKVERDELLEEILRCYLEECIGKEGSV | soluble
AMGQTVTTPLSLTLGHWKDVERIAHNQSVDVKKRRWVTFCSAEWPTFNVGWPRDGTFNRDLITQVKIKVFSPGPHGHPDQVPYIVTWEALAFDPPPWVKP | soluble
MGSDKIHHHHHHMKLPIKKAVEALLKLQTTGDSATLIGVGPMSRNLLQASFELAKEDDYPLMFIASRNQVDADELGGGYVNGWNQFSFIDAIKEVAKEVDFDGLYYVCRDHGGPWQRDQERNDHLPTEKAMELGKKSYIADIEAGFDLLMIDPTKDPFEVGKVIPLETVLERTVDLIAFCEEERKKRGLPEIGYEVGTEETNGGLTSTETYEKFITQLKVELEKRDLPLPTFIVGQTGTLTRKTEQVGHFNFKNAYDLAQMAKKYGVGLKEHNGDYLDDVTLLEHIPSEITATNVAPQYGTEETRAYLKLVELEQKLVENGLIKTPSNAREVLLIQSIKSERWRKWMLDGQKDITINEIMQDDDLSLEILDIAGHYTFNDAMVKKEINTLYANLAANNIDGKRFVIDHIKRPIRNYSECYNLKGATTRIKQLAK | not soluble
MAQEVIKIRGGRTLNGEVNISGAKNSAVAIIPATLLAQGHVKLEGLPQISDVKTLVSLLEDLNIKASLNGTELEVDTTEIQNAALPNNKVESLRASYYMMGAMLGRFKKCVIGLPGGCPLGPRPIDQHIKGFKALGAEIDESSTTSMKIEAKELKGAHIFLDMVSVGATINIMLAAVYATGQTVIENAAKEPEVVDVANFLTSMGANIKGAGTSTIKINGVKELHGSEYQVIPDRIEAGTYMCIAAACGENVILNNIVPKHVETLTAKFSELGVNVDVRDERIRINNNAPYQFVDIKTLVYPGFATDLQQPITPLLFMANGPSFVTDTIYPERFKHVEELKRMGANIEVDEGTATIKPSTLHGAEVYASDLRAGACLIIAGLIAEGVTTIYNVKHIYRGYTDIVEHLKALGADIWTETV | not soluble
SLTHYKYYEANVETNQVLVFLHGFLSDSRTYHNHIEKFTDNYHVITIDLPGHGEDQSSMDETWNFDYITTLLDRILDKYKDKSITLFGYSMGGRVALYYAINGHIPISNLILESTSPGIKEEANQLERRLVDDARAKVLDIAGIELFVNDWEKLPLFQSQLELPVEIQHQIRQQRLSQSPHKMAKALRDYGTGQMPNLWPRLKEIKVPTLILAGEYDEKFVQIAKKMANLIPNSKCKLISATGHTIHVEDSDEFDTMILGFLKEEQND | soluble
MNFIIEPGSLADIDELERLYDELNDHLSATINYPGWIKGIYPVRENAAAGVDDNSLFVARCDGRIAGSVILDHQPEKAYENIVWKIDADYSYIFVVRTFVVHPSFLQMGVGHALMDFSLELALKSEMKSIRLDVYEKNLPAISLYEKCGFEYIDTVDLGLGHYGLDWFKLYEKVILEHHHHHH | soluble
LTLPGIANLRRLRVDDVAIPKVEIVAVPVDIGKEDLVAVFREHGFSRLPVYRETLDQPLGLVLLKDLALQHGFNGNGSFDLKTLLRPLLYAPPSMPIGVLLQKMQRERVHMALVIDEYGGVDGLVTIEDLIETVIGEIEDEHDEVEGPLWTLEKPGVYMAQSRTPLDEFEAEIGLRLRREEEDEEIDTLGGLV | not soluble
PFEGNATEVFTDGYSMLYSLMKEISKAKHHIHLQFYIFEDDPAGRLLRDLLIDKARQGVEVRLLYDDVGCWKVPHAFFDEMRGAGIEARSFLKVRFPLFTSKVNYRNHRKIVVIDGRVAYTGGMNIALRYMKGFPWGIWRDTHIKIEGKAVYGLQTAFLTDWYVVDRTLITSSRYFPEVGIFGKALIQIVTSDP | not soluble
MSLSLSLAEARRLALAAQGFDGRRTRRSVQRRHLREMLARLGLLQIDSVNALVRSHYLPLFSRLGPYSMTLLDEAAWSVGRHRQLFEYWGHEASLLPLEHYPLMRWRMRQAADGQGIYQQLARFGREQQPLIRQVLQAVREQGALGAGSLSTRQERAGPWWDWSAEKHALEWLFAAGELTVAGRRGFERLYDLPERVFPAELLARPELSEAQAQRELLRMAASALGVATEKDLRDYYRLSPAQSRARLAELVEAGELLPVRVEGWSQPAYCPGEPQVPRRLGASALLSPFDSLVWERARAERLFDFRYRLEIYTPKEKRVYGYYVLPFLYNGRLVGRVDLRAERARERLVVHALHAEANGMDDAALHELAEQLRSMAAWLGLATVAIEGRGELAVRLRGVLLLEHHHHHH | not soluble
MTEEFYIGTYTKRISRGIYRVSVDTTTPKLMDCEWLASAGSPTYIAKSNAKRLYVINKKETDGQTHGGLIIYDMSEDKPRAIQQLLDLGSSPAYVAVDEDRQLVYTANYHTAAVDVYAINPDGTLKRTDQVIDQDPVGPAPEQADGPHPHFADLTPDNRLVVCDLGSDRVYVYDVSATGKLSAVSHLDLPAGYGPRHIVFDAKKGVAYLVGELSSNVATLSYDTATGTFTVKTIVSTIPDDWTAHNGAAAIRLSADGKFVYVSNRGNNSLAVFASDEAGQLTLVQRISTEGDFPRDFNWTANQRLVLVVNQNSDNASLFERDAQSGKLTLVQKDFMVPEGVSVLPAKLEHHHHHH | soluble
MTGSTETRQKEVKEPQVDVSDDSDNEAVEQELTEEQRRVAEAAGLGDHIDKQAKQSRSEKKARKLFSKLGLKQVTGVSRVCIRKSKNILFVINKPDVFKSPGSDTYIIFGEAKIEDLTQHAQMSAIENLKPTREAPQLKTVEEDENEDVEEDSTGIEEKDIELVISQANTTRNKAIRALKEADNDIVNAIMSLTM | soluble
MGSDKIHHHHHHMQNATLPLPLQSPLLAASGENRVRHGFFTRQGGVSEGLYQGLNVGLGSHDEPEKVQENRRRVTQWFGLSADRLATVHQVHSPDVVVVDDNYDGNRPQADAMVTATPGFVLGVLSADCGPILFADAQAGVVGAAHAGWKGALFGVLENTIEAMVKLGASRERIAASLGPSISQDNYEVGPEYVARFTDIDPAYADYFAATERQGHALFDLKQFTIDRLTKAGVKAENLGLCTYPDEHRFYSYRRTTHRAEPDYGRQISAIAILED | not soluble
MKSLEEKTIAKEQIFSGKVIDLYVEDVELPNGKASKREIVKHPGAVAVLAVTDEGKIIMVKQFRKPLERTIVEIPAGKLEKGEEPEYTALRELEEETGYTAKKLTKITAFYTSPGFADEIVHVFLAEELSVLEEKRELDEDEFVEVMEVTLEDALKLVESREVYDAKTAYAIQYLQLKEALQAQK | not soluble
MHERERHRIILSATQEKAVVTVQDIAELTDASEATIRRDIASLHVQGKLRRVRGGAEAVHPPQLGNLAARPFRVSESVNIDKKRAIARKAVDLCNDGDAIILNGGTTTFQMVHYMAARRLQVMTNSFAIAEHLVKHSKCNVNVPGGAIYRDQSLILSPFENDAIRNFYARRIFLGAQGVGALGIMESDALVIQSEQKLMRQAEELIVMVDSSKFRKRSSLILCPLENVTTIITDDGISDEAARMVENAGVELLIAGAVAAGKTAGPPDEENSSSVALEHHHHHH | not soluble
MKEKVIVIGGGLAGSEAAWRLANEGHRVILYEMRPKKMTPAHKTGNLAELVCSNTLGGLELTTGAGLLKAEMQKLGSLVIEAAKVARVPAGGALGVDRKIFSEYITEKIESHPNITLIREEVKEIPEDEVVVIATGPLTSDALSEKIKELVGYDTLYFYDAIAPIVEAESVDFSKGFWGSRYGKGGDDYFNCVLTEEEYKKFYEELLKAEKVKPKDFEKAVHFEGCLPIEEMAERGYKTLLFGPMKPVGLVDPRTGKEPFAVVQLRKENKEGTLLSLVGFQTKLTYKEQKRVFRLIPCLRNAVFVRLGSMHRNTFIQSNKVLTHYLNLKKKENIFFAGQITGVEGYVASSATGILAGINAGRLARGEKPLKAPTETMLGALVNYIVTKEGELQPMNPVFGLLPPLEKKVRDKKKRKELMAKRALETMEKWIKENNLVPEGLVKVC | soluble
MIRRAVVAGQFYPDDAELVEMLKRFFTDLGEEGNSRRITAGVAPHAGYIFSGYTASRTYKAIYEDGLPEVFVILGPNHTGLGSPIAVYPKGEWETPLGRIKVDEKLARRITELSEIADLDDLAHKYEHSIEVQLPFIQYLAELSGKDVKIVPITLGIQDEEVSYALGKAIYEASQELGRDIVVIASTDFMHYGEFYGYVPFRARADELPNLVKEWDMRVIRRILDFDVEGMFEEINAMNHTMCGPGGVGVGIVYSKLAGAIEAELLHYTTSFEVSRSTDAIVGYASIVMRKALEHHHHHH | not soluble
MSLTDAKHGETIQGPMSYGHWIAGRETHSGGASFPSHNPTTGAEWGRFALGSQDTVGDAVAAATAAFEGAEWSSLSPTRRGRLMMRWGDAIAQHAEKLGALETSQNGKLLSEMVLQARIVPDWLYYYGGLADKIEGRVIPVERRSVLNYTRREALGVVGVIMPWNSPLFLTTMAVAPALAAGNTVVIKPSEVSSASIIEAVKLAEQIGFPRGVLNVVTGGRETAEALIDHCGVAKIAFTGGVEAGRAVGVRAARRMAQVTLELGGKSANIVFPDADLAQARAGLLAGIFAAAGQTCVAGSRAFVHRSIHDRLLAELAERAKNIRIGNPLDPATQMGPVATKAQLDKDESMVRRAIDEGAQVVHGGCRAAVDGFPGGYFYTPTILTGVSPGSYIAQNEVFGPVLSVIPFDDEDEVIALANGTGFGLAAGIWSLNIRQAHRVANQLQAGTVWVNMYRAMSFNSPFGGYKASGIGRQNGIEAIDSYLQTKSIWCELSQEEGHHHHHH | not soluble
